Molecular target: F-actin (rabbit skeletal muscle α-actin filaments) (rabbit) (UniProt P68135)
Experiment: co-sedimentation

Which Kd does the source give for F-tractinopt-mCherry (peptide) here?
Its Kd is 8.5 µM.
